{"source": "the DeepSol protein solubility set"}
{"assay": "soluble on expression in E. coli; label from the status in PepcDB or PDB records"}
{"sequence": "MPQDMSQFLQVFFEETEEHLATLELLLIGLDLDRPDSETLHGIFRAAHSIKGSSGMFGFDDITAVTHELETLLDRIRCGQMHLRPDMISSFLEARDVLQRLLDAHRSGRPDPGVPLLETVERLRGWLRVPEQEAAEEGFGLFDDAPARETADDDAFGFFDEGPGAPERAAAPEAFGLFDEAPGAPAASEAFGLFDEAPGSPPAEERAFGLFDGAPGSPAAPSAPAQAVAAPARGAVAPVRGDGESGSIRVSVEKIDSLINLVGELVITQAMLGQLGEQLDPSRHERLQHALAQLEHNTRDLQESVMSIRMLPINFIFSRFPRLVRDTATRLGKQVELHLHGEHTELDKSVIEKLSDPLTHIVRNSIDHGIETPAERLAAGKPASGTVKLAASHQGGSVVVEVSDDGRGLSRPRILAKARERNLPVHDGMSDAEVWQLVFMPGFSTAETVTELSGRGVGMDVVKRNIGAMGGRIDIDSAPGMGTRIGIRLPLTLAILDGLIVAVEAVNYVIPLTYIVESLQARSDDVRGLGGEDNAMIRVRGEYLPLFSLHELLRIGGEAPAPEQGIVVILESEGRSFALQVDELVGQQQVVIKSLEQNFRRVEGIAGATIMGDGSVALILDVDALPRLAAREDTADE", "soluble on expression in E. coli": "not soluble"}
{"sequence": "MRGSHHHHHHGSVIFDKRIKDEEDVEKELGLPVLGSIQKFNMTNTRRSTSSLIVHEQPKSPISEKFRGIRSNIMFANPDSAVQSIVITSEAPGAGMSTIAANLAVAYAQAGYKTLIVDGDMRKPTQHYIFNLPNNEGLSSLLLNWSTYQDSIISTEIEDLDVLTSGPIPPNPSELITSRAFANLYDTLLMNYNFVIIDTPPVNTVTDAQLFSKFTGNVVYVVNSENNNKDEVKKGKELIEATGAKLLGVVLNRMPKDKSASYYAYYGTDES", "soluble on expression in E. coli": "soluble"}
{"sequence": "MITIDLHTHTSHSHGQATVQEMFEAGCARGLLVHGFSEHSPRPSGYDYPKDYRDKLTRSFPDYVEQVRTLAATYAPERTVLLGLEMDWLPGQEPFIDATIHRYDYDYVIGGIHFLGTWGFDYTPDDWQGFSPEQTADIYVRYFESLRRMAASGMFDIAAHPDIIKIFSAAAFHDWLATDKAKAVVRDALETMHTAGMAMEISSAGLRKPCKEIYPCPDIMRMAADIGLPVTFGSDAHCVNTIGWGFDTLADYARGFGYTRSVWMRRGERFERPFLEHHHHHH", "soluble on expression in E. coli": "soluble"}
{"sequence": "MGSDKIHHHHHHMVEFQSRIGKDGRLTVMEIPFDARETFQMPKGTIFVCGTINGIPYRGKLLSRGNGKQVLTIDKTLQKGLGYAGQDFPVNVAMACENQAEMVDEEKEAIPRLHSDMEAITAIAGRASVRKYMDKTVEPQKLEVILRAGLSAPSAKNKRPFHFVVVEDKAVLGAWAAGNSNAKMLSHAPCCIVVCGDGNVEGTRDFLVGGCAAATQNMLIAIHALGLGGVWCGVLRGKEWSRQVAADLYLPVKVEPLAVIALGYPTEQEKAPVPWDMKSHIHYERW", "soluble on expression in E. coli": "not soluble"}
{"sequence": "HITLNYLSKTLGMHQTINVILPEDKSYFDTNENAKPLKTMLLLHGLSSDTSSYMRYTSIERYANTHQLAVVMPNADHSFYSNMAYGHSYYDYILEVYDYVHQILPLSKKREDNFIAGHSMGGYGAIKFALTQSYRFSKAAMLSAPYDVSMIGQYQWYDFTPEAIVGNTQHVAGTSFDPYYLVEQAIDNGQALPQLYITCGTEDELYQGNIDFVNYLDEKGIPYQFKKAPGNHDYAFWDKAIEDVIDRF", "soluble on expression in E. coli": "not soluble"}
{"sequence": "KALVSIQASNIPKTAYTATDFVDMNSYSYNNITTSLPGNYADFAVIEVNLNLKNQRDQQILHDFVKPAIKAYKALGDTLELFSAKPLNQFIEQNYYLLGYPVINKGNNTANLLLAQQKSFDHNNSDHNQKSQWFTK", "soluble on expression in E. coli": "not soluble"}
{"sequence": "SNAASATETNTAPSADTQAPKPVNTVTSDVDCSVSAAWGLYKFNQKSNFSAEFEMPESVKAGTGFDALIKIKDISVSNDNLSGYKNAKLTKSSIRINVGKNVKLDGNQPGLSLSNGVLSINDHLKASLEGNSLRISAAPITVRLQALTEGTLTFIPEKTILTNTASVDGYTANTTCTTNADKPFATVKVDPADGLTITAPESASIKQDVQITATVPEKLNEKMDGKVQFFVNHIAAGDPVPVTEDNKASTSIIFDTSGSKTITARFIDAEGYNPAPDGETIIPVVTELDTKKPEDTDSYTGLINGSATSLLKPAKVMPGEKVSVSASLLPNKAPIRVYEIGINAPEDVKYIDGTGKTNYSSKLATTGSVFSSPGSGYYDPEWKNESKKPNESYRGFHSDTSYSVVDTSPQTVSAEFEIPKTLAPGIYMFQMGVYKYSNSLKDLVSIPETAFEIAGPDLPALPERKIKPQPEETPEVSDGSSTAKLVKSP", "soluble on expression in E. coli": "soluble"}
{"sequence": "FRFGLPIFHTIRWLVNLSKGKLEEPRNREGRPVSKNKKGKIKQPYRFFGEIFESMDQLTETLRRDKRNREKIQATREEWIAGLSHDLKTPLSSIYGYSMMLESKQYDWSPEEGEEMGQVVREKSEYMSKLIEDLNLTYRLKNDALPIERKLTSLIPFFKNVIEDFKKNPFSEGYDISFVSKEEHIEFALDEAWFRRILENLLGNAVKHNGKGTEIQVILEQTKNHISLKVKDNGKGMDEETITHLFNRYYRGTNTKDSTAGTGLGLAIAKELVHLHNGTIHVNSRTNIGTVITILFK", "soluble on expression in E. coli": "not soluble"}
{"sequence": "SSPGKPPRLVGGPMDASVEEEGVRRALDFAVGEYNKASNDMYHSRACQVVRARKQIVAGVNYFLDVELCRTTCTKTQPNLDNCPFHDQPHLKRKAFCSFQIYAVPWQGTMTLSKSTCQDA", "soluble on expression in E. coli": "soluble"}
{"sequence": "MTDHNLLPEPKKILWRVSELNRNARVILEQTFPLLWVSGEISNLKRYPSGHWYFSLKDDSAQVRCVMFRHKNLYLDWIPQEGMQVEAQALVTLYEARGEFQLTVEQLRRAGLGALFEAFERLKARLQQEGLFSPEYKQPLPRFPRQIGIITSPNTAALRDVLTTLQLRLPSIPVVIYPAPVQGEGSAAAITTALHTAAVRGECDVLILCRGGGSIEDLWAFNEEIVARAIAACPIPIVTGIGHETDFTIADFVADARAPTPTGAAQLASPDRQAILHRLQYWLHRLQQTMERHIERRMQATDLLAHRLIHPGERIRHQQMHLLQLRGRLQNAWNRQVEIRTWRIEETGRRIHSAKPDIQAGIRHQQELAARLQRAMAHRLENLQFKLRQQQQHLIHLDPKAVLARGYSIAYTARGDILHDSRQTRAGDNVRLVFASGWAKADITETGE", "soluble on expression in E. coli": "not soluble"}
{"sequence": "MSLADKAFHTRLINMRRDLHEHPELSFQEVETTKKIRRWLEEEQIEILDVPQLKTGVIAEIKGREDGPVIAIRADIDALPIQEQTNLPFASKVDGTMHACGHDFHTASIIGTAMLLNQRRAELKGTVRFIFQPAEEIAAGARKVLEAGVLNGVSAIFGMHNKPDLPVGTIGVKEGPLMASVDRFEIVIKGKGGHAGIPNNSIDPIAAAGQIISGLQSVVSRNISSLQNAVVSITRVQAGTSWNVIPDQAEMEGTVRTFQKEARQAVPEHMRRVAEGIAAGYGAQAEFKWFPYLPSVQNDGTFLNAASEAAARLGYQTVHAEQSPGGEDFALYQEKIPGFFVWMGTNGTEEWHHPAFTLDEEALTVASQYFAELAVIVLETIKEGGSHHHHHH", "soluble on expression in E. coli": "soluble"}
{"sequence": "MMVYQRPVFTVISLLRIRNREEAKLVLIGAVVVYRNFVEQTLADAQKNWVKSLVLYDDPGDAVTGILTWFSRYACLHGPRLGPLDTIAVNDNPLYIYCPRRKLEEYAKERIVSFHSEIGSVVCSMSPFDAGVTREKVRYGHNLISPGSCLLPDALEAYVAFLPSKSFLKLPYSVYEVHNDRYVHKFFALLPGSRFHFEVVAVGLAYPAAKKRPSGLGILRCCFTGKTNTCLLEHHHHHH", "soluble on expression in E. coli": "soluble"}
{"sequence": "EVKLQESGPSLVKPSQTLSLTCSVTGDSITSDFWSWIRQFPGNRLEYMGFVQYSGETAYNPSLKSRISITRDTSKNQYYLDLNSVTTEDTAVYYCANWHGDYWGQGTTVTVSSAKTTPPSVYPLAPGSAAQTNSMVTLGCLVKGYFPEPVTVTWNSGSLSSGVHTFPAVLQSDLYTLSSSVTVPSSTWPSETVTCNVAHPASSTKVDKKIVPRDCHHHHHH", "soluble on expression in E. coli": "soluble"}
{"sequence": "GAMSCIKGNVDLVFLFDGSMSLQPDEFQKILDFMKDVMKKLSNTSYQFAAVQFSTSYKTEFDFSDYVKRKDPDALLKHVKHMLLLTNTFGAINYVATEVFREELGARPDATKVLIIITDGEATDSGNIDAAKDIIRYIIGIGKHFQTKESQETLHKFASKPASEFVKILDTFEKLKDLFTELQKKIYVIEG", "soluble on expression in E. coli": "soluble"}
{"sequence": "MAHHHHHHMNKTNEVDDWTEWLDDDDEKREDEFHIDSTKDEAIKKKILQNNLDDIADFLDIGDNKKKKVEETENKVKPKVTEKIITLESTPLNSIKDCETLGEILAGRIRKCKAKSVALERFISIIITASESKLEDKDLLTVSRKLQEMVSQREKKKRYAQINKKKPNEVKNSIKNYEDEVDMIYGDLSYDEDDYEEEVVDEYLENF", "soluble on expression in E. coli": "soluble"}
{"sequence": "RNQVEHEAKVSLAKSFGAGIAHEMRNPLSGLCTSIDVIQSVLPNKKAMGEKDQYVMSGEDVTLLREVSEDAMNIIHSGNETIDLLLTSIDENRVSRSSFKRYSAQSVVEKAIESFSYKRSTDRFAISFDARSEFDFLGSDTLLKYVMYNLFKNAFHHRSSDEFHIHVSMQSNDTANQIVVTDNGSGIAPDVIRHIFQDFYTTGKSGSYGLGLPFCKKVMRSFGGNIKCISQPGEWSQFTLTFPPITSDTVTEIKDELTKMKSILLVSNQDIIVQKMADISRFMGFDVTVLDVKSVFKKKEYEFEFDLIFVDVESLDVLENQLDRIESLLSFTEARVVYLFEHKPAQRAKKVGHDPIWVETQAWLLNTKATIERLLYDSTYISSTLPSAPL", "soluble on expression in E. coli": "not soluble"}
{"sequence": "MDDIRCAIIIDPDLPPGVIANTAAVLAMSLGKRHPELVGQDLPDARGQPRQGITTVPIPVLKGGADQLRALRAAASETGLTLVELTSATRFTRSYQEYAAALAATPEEMVEYQGLALCGPGKRVRQLTGSLGLLRLEHHHHHH", "soluble on expression in E. coli": "not soluble"}
{"sequence": "MFFSVVIPTYNRLPILEKCLRALEQQTFDETLISGYEIVVVDDGSTDGTLAWLDGHCQGFPHVRTWEQDHQGPAAARNLGVKEAAGDTIIFIDSDLVVTDIFLQAHAEGLQRGQKQYNSDRVFTYGAVVNTCNFDSPQSEPYKLTDYSAAFFATGNVAIAKQWLLEAGLFDTGFQLYGWEDLELGVRLKNLGLKLVKCPRAVGYHWHPPFSLQQIPKLIDQEIQRGRMGVLFYQKHPTWEVRLMIQMTRLHWFLWGLLSLGGRLNEKTMAPLLQWLIDHDRPQLALEIARIFLNWYNVQGVYAAFAESQSSHLEHHHHHH", "soluble on expression in E. coli": "not soluble"}
{"sequence": "MSLTLFGKTSRRPGLPRQAAGLALAACALASLPAQAKESDGDRLQGIVEPIVARQPLKLGVTVVHLLDNFYKGIAYGIVDEARRSNVEVVQVAVAGAYGNVQQQFAQLQSFKTLGVDYAVLSPAAYSGYDPVVADLARSGIKTISAGIPVNSDKIAFGVLQDDTLIGKVLGKALCDDGAQGKQVIVVPGAAGLEWPRLRYEGFKEVASACGAKLTPAAFRGEMSLADGMAQTQDLLMRTPDAEYVFTPVTFLGIGAVRAARQANRPVKVLTSAMVKENEAMIREGRLLAVASEPGVIMGRLIVQYAIREHEGLPMPPLDKPTRSVPYPHFNVPITVVDKSNEGHHHHHH", "soluble on expression in E. coli": "soluble"}
{"sequence": "MGSDKIHHHHHHVLRAGLIHSLASRPQTWHSTAMDSDGYEIETHVGRRRAMRYHFWIDHEILRYPWTNFDEIAPGVFRSNHPTRARFKAYAERGIKTILTLRGGEDRPHHLLEVEACRDFGLTFECVPMSARHAPTVAQLSAVFEVLDRIERPFLIHCKSGADRTGLVSAIYLMHYENIPFDQARVQLSFRYIHIRRSQTGILDVFLEAFAARHAETGIGIRDWIMTEYDEAALTASFDQRQRNLWPWEGWRSGVS", "soluble on expression in E. coli": "not soluble"}
